Measurements as given in IntAct's records for PubMed 16959574.

Target: gsk3b_human GSK3B (UniProt P49841)
Sequence (P49841 whole entry, looked up): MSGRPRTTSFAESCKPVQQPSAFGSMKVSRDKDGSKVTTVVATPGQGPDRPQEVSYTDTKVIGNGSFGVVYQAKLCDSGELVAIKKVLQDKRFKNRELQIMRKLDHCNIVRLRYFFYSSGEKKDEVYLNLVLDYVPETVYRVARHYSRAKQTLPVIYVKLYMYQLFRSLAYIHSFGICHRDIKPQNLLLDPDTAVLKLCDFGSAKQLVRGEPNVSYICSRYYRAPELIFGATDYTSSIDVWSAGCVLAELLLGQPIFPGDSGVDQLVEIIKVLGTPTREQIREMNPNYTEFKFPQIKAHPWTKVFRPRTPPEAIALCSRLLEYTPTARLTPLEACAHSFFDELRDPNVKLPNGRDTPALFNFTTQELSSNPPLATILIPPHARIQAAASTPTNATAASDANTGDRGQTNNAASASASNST

Sequence of Tuberin (Rattus norvegicus (Rat)), P49816 S1389A (P49816 whole entry S1389A): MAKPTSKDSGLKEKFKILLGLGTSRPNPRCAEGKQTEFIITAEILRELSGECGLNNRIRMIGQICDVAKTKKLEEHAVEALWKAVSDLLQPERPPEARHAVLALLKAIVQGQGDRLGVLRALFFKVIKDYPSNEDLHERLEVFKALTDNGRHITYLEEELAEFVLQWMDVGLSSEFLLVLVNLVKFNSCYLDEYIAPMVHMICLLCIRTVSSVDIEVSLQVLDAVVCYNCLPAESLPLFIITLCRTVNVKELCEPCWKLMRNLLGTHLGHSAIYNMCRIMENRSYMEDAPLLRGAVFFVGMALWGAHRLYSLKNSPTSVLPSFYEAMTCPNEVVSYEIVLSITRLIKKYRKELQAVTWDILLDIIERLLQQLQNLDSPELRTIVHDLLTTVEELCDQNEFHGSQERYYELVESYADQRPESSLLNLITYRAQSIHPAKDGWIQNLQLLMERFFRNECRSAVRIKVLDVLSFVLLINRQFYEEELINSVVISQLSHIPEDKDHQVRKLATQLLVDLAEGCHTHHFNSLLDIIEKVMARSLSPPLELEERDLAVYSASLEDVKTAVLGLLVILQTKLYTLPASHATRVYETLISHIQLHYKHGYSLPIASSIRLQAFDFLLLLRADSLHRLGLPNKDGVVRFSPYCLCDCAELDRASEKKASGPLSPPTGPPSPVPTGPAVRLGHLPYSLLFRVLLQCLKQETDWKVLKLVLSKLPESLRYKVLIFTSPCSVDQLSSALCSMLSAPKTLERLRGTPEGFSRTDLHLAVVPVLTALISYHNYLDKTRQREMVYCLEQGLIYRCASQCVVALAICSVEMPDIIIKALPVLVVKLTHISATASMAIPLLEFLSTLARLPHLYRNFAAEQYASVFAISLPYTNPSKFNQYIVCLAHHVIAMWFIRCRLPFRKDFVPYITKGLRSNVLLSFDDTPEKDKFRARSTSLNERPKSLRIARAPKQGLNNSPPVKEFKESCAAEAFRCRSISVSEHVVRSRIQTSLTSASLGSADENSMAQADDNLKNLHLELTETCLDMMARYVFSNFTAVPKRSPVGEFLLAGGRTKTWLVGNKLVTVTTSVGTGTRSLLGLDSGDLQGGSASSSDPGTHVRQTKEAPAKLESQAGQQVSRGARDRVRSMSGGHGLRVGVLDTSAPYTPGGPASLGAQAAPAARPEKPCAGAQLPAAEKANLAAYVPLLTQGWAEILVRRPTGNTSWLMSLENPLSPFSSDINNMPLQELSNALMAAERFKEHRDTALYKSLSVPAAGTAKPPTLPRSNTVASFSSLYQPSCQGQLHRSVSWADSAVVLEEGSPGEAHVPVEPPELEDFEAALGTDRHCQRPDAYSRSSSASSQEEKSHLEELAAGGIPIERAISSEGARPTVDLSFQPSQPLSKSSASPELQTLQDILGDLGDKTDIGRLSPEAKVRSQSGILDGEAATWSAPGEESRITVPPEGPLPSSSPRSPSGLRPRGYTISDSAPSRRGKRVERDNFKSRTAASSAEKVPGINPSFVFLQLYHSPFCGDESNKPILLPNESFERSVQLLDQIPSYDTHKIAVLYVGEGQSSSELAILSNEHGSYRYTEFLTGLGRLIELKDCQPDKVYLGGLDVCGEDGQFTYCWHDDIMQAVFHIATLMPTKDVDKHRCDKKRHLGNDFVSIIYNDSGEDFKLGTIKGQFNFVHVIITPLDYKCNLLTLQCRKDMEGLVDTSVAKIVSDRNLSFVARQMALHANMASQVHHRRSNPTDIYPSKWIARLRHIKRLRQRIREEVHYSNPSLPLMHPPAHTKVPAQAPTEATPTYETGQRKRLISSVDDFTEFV

Tuberin (Rattus norvegicus (Rat)), P49816 S1389A
effect of a mutation on the interaction: disrupting interaction
